The values that follow come from patent US20180195091A1, “THERMOPHILIC MICROORGANISMS FOR CONVERSION OF LIGNOCELLULOSIC BIOMASS TO ETHANOL” (THE TRUSTEES OF DARTMOUTH COLLEGE, priority 2015, published 2018).

Values joined by “and” are separate entries in the source; they are usually repeats but may differ in a detail not shown here. Equal values may be shown once.

Data set [1] addresses Clostridium thermocellum LL346 (ethanol-tolerant) AdhE, mutations P704L and H734R (Acetivibrio thermocellus, UniProt A3DCI2, H734R/P704L).
Substrate in data set [2]: CC=O
Put plainly: purified protein, by the assay type. The settings on record: pH 7.0; 55.0 °C.

Substrate in data set [3]: NC(=O)C1=CN([C@@H]2O[C@H](COP(=O)(O)OP(=O)(O)OC[C@H]3O[C@@H](n4cnc5c(N)ncnc54)[C@H](O)[C@@H]3O)[C@@H](O)[C@H]2O)C=CC1
Nature of the data set: purified protein, by the assay type. The settings on record: pH 7.0; 55.0 °C.

Substrate in data set [4]: NC(=O)C1=CN([C@@H]2O[C@H](COP(=O)(O)OP(=O)(O)OC[C@H]3O[C@@H](n4cnc5c(N)ncnc54)[C@H](OP(=O)(O)O)[C@@H]3O)[C@@H](O)[C@H]2O)C=CC1
Nature of the data set: purified protein, by the assay type. The settings on record: pH 7.0; 55.0 °C.

Substrate in data set [5]: CC(=O)SCCNC(=O)CCNC(=O)[C@H](O)C(C)(C)COP(=O)(O)OP(=O)(O)OC[C@H]1O[C@@H](n2cnc3c(N)ncnc32)[C@H](O)[C@@H]1OP(=O)(O)O
Nature of the data set: purified protein, by the assay type. To be noted: pH 7.0; 55.0 °C.

Substrate in data set [6]: NC(=O)C1=CN([C@@H]2O[C@H](COP(=O)(O)OP(=O)(O)OC[C@H]3O[C@@H](n4cnc5c(N)ncnc54)[C@H](O)[C@@H]3O)[C@@H](O)[C@H]2O)C=CC1
Nature of the data set: purified protein, by the assay type. To be noted: pH 7.0; 55.0 °C. This is another data set of the same source.

Substrate in data set [7]: CC=O
Nature of the data set: ADH reaction (acetaldehyde reduction) of purified AdhE, apparent kinetics. In kind it is biochemical, Clostridium thermocellum. The settings on record: pH 7.0; 55.0 °C. As to the method: (§1) 500 μL of E. coli culture containing a plasmid with the adhE gene of interest was inoculated into 100 mL sterile LB broth Miller (Acros) with the appropriate antibiotic, and were grown aerobically to OD600 0.5 with shaking at 200 rpm at 37° C. (Eppendorf Innova 42 shaker). The E. coli strain harboring the pNT-CALML3 control plasmid (Invitrogen) was used as a negative control to measure native E. coli ADH or ALDH activity. The cultures were then transferred to sterile serum bottles, and 40 mM IPTG (Isopropyl β-D-1-thiogalactopyranoside) was used to induce protein expression. The serum bottles were then purged with nitrogen to generate an anaerobic protein expression environment, and the cells were cultured for 2 h at 37° C. before harvesting.
(§2) The E. coli crude extracts described above were incubated at 50° C. anaerobically for 20 min to denature E. coli proteins, and the denatured proteins were separated by centrifugation. In strains LL346 and LL1040, the AdhE proteins were heat labile, and lost activity after 50° C. incubation, so these cell extracts were applied directly to the purification column without heating. E. coli cells expressing the control plasmid pNT-CALML3 were subject to the same treatment as above, and its ADH and ALDH activities before and after heat treatment were measured (Table S3). The cell extracts containing His-tagged AdhE were then subjected to anaerobic affinity column purification (Ni-NTA spin columns, Qiagen). The purification was carried out according to the Qiagen protocol “Ni-NTA Agarose Purification of 6×His-tagged Proteins from E. coli under Native Conditions” with some modifications as described below. The column was first equilibrated with Equilibrium Buffer (50 mM NaH2PO4, 300 mM NaCl, 5 mM imidazole, 5 μM FeSO4, pH 7), then cell extracts were applied to the column and the column was washed twice with Wash Buffer (50 mM NaH2PO4, 300 mM NaCl, 50 mM imidazole, 20% ethanol, 5 μM FeSO4, pH 7). The His-tagged AdhE was eluted by addition of 200 μL Elution Buffer (50 mM NaH2PO4, 300 mM NaCl, 500 mM imidazole, 5 μM FeSO4, pH 7), this is “Eluent 1” in Table S3 and S4. Repeating this elution step sequentially generated more purified “Eluent 2” and “Eluent 3”. For C. thermocellum and T. saccharolyticum AdhE, activity was measured at various stages during purification. […] The degree of protein purity was estimated by gel densitometry using the image analysis software ImageJ, where the density of each visible gel band from Eluent 3 was plotted as peaks. The area of each peak was then integrated to generate percentages, which is an indicator of AdhE purity E. coli cell extracts with native AdhE expressed (i.e. without the His-tag) were used directly without purification.
(§3) All the ALDH activity measurements mentioned in this study refer to the reaction in the acetaldehyde-producing direction. All the ADH activity measurements mentioned in this study refer to the reaction in the ethanol-producing direction. For ADH (acetaldehyde reduction) reactions, the anaerobic reaction mixture contained 0.24 mM NADH or NADPH, 17.6 mM acetaldehyde, 1 mM DTT, 100 mM Tris-HCl, 5 μM FeSO4 and cell extract or purified protein solution (protein amount indicated separately for each assay). The final volume was 850 μL, the assay temperature was 55° C. and the assay was started by the addition of acetaldehyde. For ALDH (acetyl-CoA reduction) reactions, the acetaldehyde in the above anaerobic reaction mixture was substituted with 0.35 mM acetyl-CoA. Decrease in absorbance at 340 nm caused by NAD(P)H oxidation was monitored by an Agilent 8453 UV-Vis spectrophotometer with Peltier temperature control. Protein concentration was determined using the Bradford method with bovine serum albumin (Thermo Scientific) as the standard. Specific activities are expressed as units per mg of protein. One unit of activity=formation of 1 μmol of product per min Specific activities in Table 8 and Table 9 are reported for at least two biological replicates. […]

Substrate in data set [8]: NC(=O)C1=CN([C@@H]2O[C@H](COP(=O)(O)OP(=O)(O)OC[C@H]3O[C@@H](n4cnc5c(N)ncnc54)[C@H](O)[C@@H]3O)[C@@H](O)[C@H]2O)C=CC1
Described as above. The settings on record: pH 7.0; 55.0 °C. In kind it is biochemical, Clostridium thermocellum. As to the method: as §1, §2, §3

Substrate in data set [9]: CC(=O)SCCNC(=O)CCNC(=O)[C@H](O)C(C)(C)COP(=O)(O)OP(=O)(O)OC[C@H]1O[C@@H](n2cnc3c(N)ncnc32)[C@H](O)[C@@H]1OP(=O)(O)O
Put plainly: ALDH reaction (acetyl-CoA reduction) of purified AdhE, apparent kinetics. In kind it is biochemical, Clostridium thermocellum. To be noted: pH 7.0; 55.0 °C. As for the experimental part: as §1, §2, §3

Substrate in data set [10]: NC(=O)C1=CN([C@@H]2O[C@H](COP(=O)(O)OP(=O)(O)OC[C@H]3O[C@@H](n4cnc5c(N)ncnc54)[C@H](O)[C@@H]3O)[C@@H](O)[C@H]2O)C=CC1
The description is as above. In kind it is biochemical, Clostridium thermocellum. The settings on record: pH 7.0; 55.0 °C. As for the experimental part:
as §1, §2, §3

Where [11] appears, read: in the presence of 2.35 mM NAD^+.

Consider `CCO` [ethanol], for which the “increase in ADH activity” value in data set [1] (purified adhe) was determined as 2 fold.
As to `NC(=O)c1ccc[n+]([C@@H]2O[C@H](COP(=O)([O-])OP(=O)(O)OC[C@H]3O[C@@H](n4cnc5c(N)ncnc54)[C@H](O)[C@@H]3O)[C@@H](O)[C@H]2O)c1` [NAD^+], in data set [1] (setting [11]), the ADH activity retained was 98% and the ALDH activity retained turned out to be 92%. The “inhibition by NAD^+” value in data set [1] (purified AdhE, concentration not stated) is “less than 10%”.

B1: (Acetivibrio thermocellus; D494G) (protein)
chain: MTKIANKYEVIDNVEKLEKALKRLREAQSVYATYTQEQVDKIFFEAAMAANKMRIPLAKMAVEETGMGVVEDKVIKNHYASEYIYNAYKNTKTCGVIEEDPAFGIKKIAEPLGVIAAVIPTTNPTSTAIFKTLIALKTRNAIIISPHPRAKNSTIEAAKIVLEAAVKAGAPEGIIGWIDVPSLELTNLVMREADVILATGGPGLVKAAYSSGKPAIGVGAGNTPAIIDDSADIVLAVNSIIHSKTFDNGMICASEQSVIVLDGVYKEVKKEFEKRGCYFLNEDETEKVRKTIIINGALNAKIVGQKAHTIANLAGFEVPETTKILIGEVTSVDISEEFAHEKLCPVLAMYRAKDFDDALDKAERLVADGGFGHTSSLYIDTVTQKEKLQKFSERMKTCRILVNTPSSQGGIGDLYNFKLAPSLTLGCGSWGGNSVSDNVGVKHLLNIKTVAERRENMLWFRTPEKIYIKRGCLPVALDELKNVMGKKKAFIVTGNFLYNNGYTKPITDKLDEMGIVHKTFFDVSPDPSLASAKAGAAEMLAFQPDTIIAVGGGSAMDAAKIMWVMYEHPEVDFMDMAMRFMDIRKRVYTFPKMGQKAYFIAIPTSAGTGSEVTPFAVITDEKTGIKYPLADYELLPDMAIVDADMMMNAPKGLTAASGIDALTHALEAYVSMLATDYTDSLALRAIKMIFEYLPRAYENGASDLVAREKMANAATIAGMAFANAFLGVCHSMARKLGAFYHLPHGVANALMINEVIRFNSSEAPTKMGTFPQYDHPRTLERYAEIADYIGLKGKNNEEKVENLIKAIDELKEKVGIRKTIKDYDIDEKEFLDRLDEMVEQAFDDQCTGTNPRYPLMNEIRQMYLNAYYGGAKK
What is called Km is the concentration of substrate that gives half-maximal velocity. For orientation: kcat means the maximal rate divided by the concentration of active sites. As a reminder, the kcat/Km is the turnover number divided by the Michaelis constant. As for B1, the Michaelis-Menten constant (Km) is 2100 ± 200 µM and 1800 ± 200 µM in data set [2]; 400 ± 50 µM in [3]; 80 ± 20 µM in data set [4]; 4 ± 0.5 µM in data set [5]; 20 ± 2 µM in data set [6]. For the same molecule, the kcat in data set [2] is 318 s⁻¹ and 246 s⁻¹; in data set [3] it was 319 ± 21 s⁻¹; in data set [4], 295 ± 18 s⁻¹; in data set [5], 202 ± 4 s⁻¹; in data set [6], 64 ± 2 s⁻¹. For the same molecule, the kcat/Km in [2] was 150000 M⁻¹ s⁻¹ and 140000 M⁻¹ s⁻¹; in data set [3], 890000 M⁻¹ s⁻¹; in data set [4] it was 3.8e+06 M⁻¹ s⁻¹; in [5], 5.8e+07 M⁻¹ s⁻¹; in data set [6], 3.4e+06 M⁻¹ s⁻¹.

B2: (Acetivibrio thermocellus) (protein)
chain: MTKIANKYEVIDNVEKLEKALKRLREAQSVYATYTQEQVDKIFFEAAMAANKMRIPLAKMAVEETGMGVVEDKVIKNHYASEYIYNAYKNTKTCGVIEEDPAFGIKKIAEPLGVIAAVIPTTNPTSTAIFKTLIALKTRNAIIISPHPRAKNSTIEAAKIVLEAAVKAGAPEGIIGWIDVPSLELTNLVMREADVILATGGPGLVKAAYSSGKPAIGVGAGNTPAIIDDSADIVLAVNSIIHSKTFDNGMICASEQSVIVLDGVYKEVKKEFEKRGCYFLNEDETEKVRKTIIINGALNAKIVGQKAHTIANLAGFEVPETTKILIGEVTSVDISEEFAHEKLCPVLAMYRAKDFDDALDKAERLVADGGFGHTSSLYIDTVTQKEKLQKFSERMKTCRILVNTPSSQGGIGDLYNFKLAPSLTLGCGSWGGNSVSDNVGVKHLLNIKTVAERRENMLWFRTPEKIYIKRGCLPVALDELKNVMGKKKAFIVTDNFLYNNGYTKPITDKLDEMGIVHKTFFDVSPDPSLASAKAGAAEMLAFQPDTIIAVGGGSAMDAAKIMWVMYEHPEVDFMDMAMRFMDIRKRVYTFPKMGQKAYFIAIPTSAGTGSEVTPFAVITDEKTGIKYPLADYELLPDMAIVDADMMMNAPKGLTAASGIDALTHALEAYVSMLATDYTDSLALRAIKMIFEYLPRAYENGASDLVAREKMANAATIAGMAFANAFLGVCHSMARKLGAFYHLPHGVANALMINEVIRFNSSEAPTKMGTFPQYDHPRTLERYAEIADYIGLKGKNNEEKVENLIKAIDELKEKVGIRKTIKDYDIDEKEFLDRLDEMVEQAFDDQCTGTNPRYPLMNEIRQMYLNAYYGGAKK
Consider B2, for which the Km in data set [7] was 1300 ± 200 µM; in data set [8], 100 ± 20 µM; in data set [9] it was 8 ± 2 µM; in data set [10], 60 ± 4 µM. In addition, the kcat was found to be 238 ± 8 s⁻¹ in [7], 302 ± 13 s⁻¹ in data set [8], 297 ± 11 s⁻¹ in data set [9] and 152 ± 4 s⁻¹ in [10]. Also, the kcat/Km was found to be 180000 M⁻¹ s⁻¹ in data set [7], 2.3e+06 M⁻¹ s⁻¹ in data set [8], 3.5e+07 M⁻¹ s⁻¹ in data set [9] and 2.8e+06 M⁻¹ s⁻¹ in data set [10].
